Data: US20100260668A1 (published 2010)

Experiments:
[1] = target: T1, human DLL4 extracellular domain (human, UniProt Q9NR61 27-529, biotin label in the Notch-1 competition ELISA (sites not given)); assay: cell-based or functional assay
[2] = target: T1, human DLL4 extracellular domain; assay: competition ELISA: 14 nM biotin-labelled human DLL4 ECD pre-mixed with DVD-Ig, then on coated human Notch-1 (competitor Notch-1)
[3] = target: T2, human DLL4 on 293G-human DLL4 cells (human, UniProt Q9NR61 27-685); assay: FACS: inhibition of Notch1 binding to 293G-human DLL4 cells (competitor Notch1)
T2 construct: whole, on cells; no method paragraph describes this FACS assay

[4] = target: T3, DLL4 ECD/His tag (R&D 1506-D4-050) (UniProt Q9NR61 27-529); assay: direct bind ELISA, DLL4 on plate; DLL4 VD C-term.; HC Long, LC Long
T3 construct: extracellular domain; Bought antigen coated on the ELISA plate; not shown: His tag

[5] = target: T3, DLL4 ECD/His tag (R&D 1506-D4-050); assay: direct bind ELISA, DLL4 on plate; DLL4 VD C-term.; HC Long, LC Short

Row | Binder | EC50 [4] [nM] | EC50 [5] [nM] | also measured
1 | DVD486 (VEGF (AB071) N-terminal / DLL4 (seq. 1) C-terminal DVD-Ig, short HC linker, long LC linker) (bispecific antibody, human IgG1, kappa, also called DVD486H/DVD486L) heavy: not shown light: DIQMTQSPSSLSASVGDRVTITCRASQVIRRSLAWYQQKPGKAPKLLIYAASNLASGVPSRFSGSGSGTDFTLTISSLQPEDFATYYCQQSNTSPLTFGQGTKVEIKRTVAAPSVFIFPPDIQMTQSPSSLSASVGDRVTITCRASQDVSTAVAWYQQKPGKAPKLLIYSASFLYSGVPSRFSGSGSGTDFTLTISSLQPEDFATTYYCQQSYTGTVTFGQGTKVEIKRTVAAPSVFIFPPSDEQLKSGTASVVCLLNNFYPREAKVQWKVDNALQSGNSQESVTEQDSKDSTYSLSSTLTLSKADYEKHKVYACEVTHQGLSSPVTKSFNRGEC | – | – | DVD-Ig Inhibition of sFlt1 (IC50, nM) [1]: 0.7 nM; IC50 [2]: 2.91 nM; IC50 [3]: 10.2 nM
2 | DVD474 (bispecific antibody, human IgG1, kappa, DVD-Ig; outer AB071 (VEGF), inner AB015 (DLL4); HC long, LC long linker; also called DVD474H; DVD474L) heavy: not shown light: DIQMTQSPSSLSASVGDRVTITCRASQVIRRSLAWYQQKPGKAPKLLIYAASNLASGVPSRFSGSGSGTDFTLTISSLQPEDFATYYCQQSNTSPLTFGQGTKVEIKRTVAAPSVFIFPPDIQMTQSPSSLSASVGDRVTITCRASQDVSTAVAWYQQKPGKAPKLLIYSASFLYSGVPSRFSGSGSGTDFTLTISSLQPEDFATTYYCQQSYTGTVTFGQGTKVEIKRTVAAPSVFIFPPSDEQLKSGTASVVCLLNNFYPREAKVQWKVDNALQSGNSQESVTEQDSKDSTYSLSSTLTLSKADYEKHKVYACEVTHQGLSSPVTKSFNRGEC | 0.57 | – | –
3 | DVD524 (bispecific antibody, human IgG1, lambda, DVD-Ig; HC long, LC short linker; also called DVD524H; DVD524L) heavy: not shown light: DIQMTQSPSSLSASVGDRVTITCSASQDISNYLNWYQQKPGKAPKVLIYFTSSLHSGVPSRFSGSGSGTDFTLTISSLQPEDFATYYCQQYSTVPWTFGQGTKVEIKRTVAAPQAVVTQESALTTSPGETVTLTCRSSTGAVTTSNYANWVQEKPDHLFTGLIGGTNNRAPGVPARFSGSLIGDKAALTITGAQTEDEAIYFCALWYSNHWVFGGGTKLTVLGQPKAAPSVTLFPPSSEELQANKATLVCLISDFYPGAVTVAWKADSSPVKAGVETTTPSKQSNNKYAASSYLSLTPEQWKSHRSYSCQVTHEGSTVEKTVAPTECS | – | 0.22 | –
4 | DVD518 (bispecific antibody, human IgG1, kappa, lambda, DVD-Ig; HC long, LC long linker; also called DVD518H; DVD518L) heavy: not shown light: DIQMTQSPSSLSASVGDRVTITCSASQDISNYLNWYQQKPGKAPKVLIYFTSSLHSGVPSRFSGSGSGTDFTLTISSLQPEDFATYYCQQYSTVPWTFGQGTKVEIKRTVAAPSVFIFPPQAVVTQESALTTSPGETVTLTCRSSTGAVTTSNYANWVQEKPDHLFTGLIGGTNNRAPGVPARFSGSLIGDKAALTITGAQTEDEAIYFCALWYSNHWVFGGGTKLTVLGQPKAAPSVTLFPPSSEELQANKATLVCLISDFYPGAVTVAWKADSSPVKAGVETTTPSKQSNNKYAASSYLSLTPEQWKSHRSYSCQVTHEGSTVEKTVAPTECS | 5.9 | – | –
5 | DVD470 (bispecific antibody, human IgG1, kappa, DVD-Ig; HC long, LC long linker; also called DVD470H; DVD470L) heavy: not shown light: DIQMTQSPSSLSASVGDRVTITCSASQDISNYLNWYQQKPGKAPKVLIYFTSSLHSGVPSRFSGSGSGTDFTLTISSLQPEDFATYYCQQYSTVPWTFGQGTKVEIKRTVAAPSVFIFPPDIQMTQSPSSLSASVGDRVTITCRASQDVSTAVAWYQQKPGKAPKLLIYSASFLYSGVPSRFSGSGSGTDFTLTISSLQPEDFATTYYCQQSYTGTVTFGQGTKVEIKRTVAAPSVFIFPPSDEQLKSGTASVVCLLNNFYPREAKVQWKVDNALQSGNSQESVTEQDSKDSTYSLSSTLTLSKADYEKHKVYACEVTHQGLSSPVTKSFNRGEC | 0.19 | – | –
6 | DVD480 (bispecific antibody, human IgG1, kappa, DVD-Ig; outer AB071 (VEGF), inner AB015 (DLL4); HC long, LC short linker; also called DVD480H; DVD480L) heavy: not shown light: DIQMTQSPSSLSASVGDRVTITCRASQVIRRSLAWYQQKPGKAPKLLIYAASNLASGVPSRFSGSGSGTDFTLTISSLQPEDFATYYCQQSNTSPLTFGQGTKVEIKRTVAAPDIQMTQSPSSLSASVGDRVTITCRASQDVSTAVAWYQQKPGKAPKLLIYSASFLYSGVPSRFSGSGSGTDFTLTISSLQPEDFATTYYCQQSYTGTVTFGQGTKVEIKRTVAAPSVFIFPPSDEQLKSGTASVVCLLNNFYPREAKVQWKVDNALQSGNSQESVTEQDSKDSTYSLSSTLTLSKADYEKHKVYACEVTHQGLSSPVTKSFNRGEC | – | 0.6 | –
7 | DVD476 (bispecific antibody, human IgG1, kappa, DVD-Ig; HC long, LC short linker; also called DVD476H; DVD476L) heavy: not shown light: DIQMTQSPSSLSASVGDRVTITCSASQDISNYLNWYQQKPGKAPKVLIYFTSSLHSGVPSRFSGSGSGTDFTLTISSLQPEDFATYYCQQYSTVPWTFGQGTKVEIKRTVAAPDIQMTQSPSSLSASVGDRVTITCRASQDVSTAVAWYQQKPGKAPKLLIYSASFLYSGVPSRFSGSGSGTDFTLTISSLQPEDFATTYYCQQSYTGTVTFGQGTKVEIKRTVAAPSVFIFPPSDEQLKSGTASVVCLLNNFYPREAKVQWKVDNALQSGNSQESVTEQDSKDSTYSLSSTLTLSKADYEKHKVYACEVTHQGLSSPVTKSFNRGEC | – | 0.3 | –
8 | DVD458 (bispecific antibody, human IgG1, kappa, L234A L235A, DVD-Ig; outer AB071 (VEGF), inner AB069 (DLL4); HC long, LC short linker; also called DVD458H; DVD458L) heavy: not shown light: DIQMTQSPSSLSASVGDRVTITCRASQVIRRSLAWYQQKPGKAPKLLIYAASNLASGVPSRFSGSGSGTDFTLTISSLQPEDFATYYCQQSNTSPLTFGQGTKVEIKRTVAAPDIVMTQSPDSLAVSLGERATISCRASESVDNYGISFMKWFQQKPGQPPKLLIYAASNQGSGVPDRFSGSGSGTDFTLTISSLQAEDVAVYYCQQSKEVPWTFGGGTKVEIKRTVAAPSVFIFPPSDEQLKSGTASVVCLLNNFYPREAKVQWKVDNALQSGNSQESVTEQDSKDSTYSLSSTLTLSKADYEKHKVYACEVTHQGLSSPVTKSFNRGEC | – | 1.54 | –
9 | DVD498 (bispecific antibody, human IgG1, kappa, DVD-Ig; outer AB071 (VEGF), inner AB072 (DLL4); HC long, LC long linker; also called DVD498H; DVD498L) heavy: not shown light: DIQMTQSPSSLSASVGDRVTITCRASQVIRRSLAWYQQKPGKAPKLLIYAASNLASGVPSRFSGSGSGTDFTLTISSLQPEDFATYYCQQSNTSPLTFGQGTKVEIKRTVAAPSVFIFPPDIQMTQSSSYLSVSLGGRVTITCKASDHINNWLAWYQQKPGNAPRLLISGATSLETGVPSRFSGSGSGKDYTLSITSLQTEDVATYYCQQYWSIPLTFGAGTKLELKRTVAAPSVFIFPPSDEQLKSGTASVVCLLNNFYPREAKVQWKVDNALQSGNSQESVTEQDSKDSTYSLSSTLTLSKADYEKHKVYACEVTHQGLSSPVTKSFNRGEC | 0.45 | – | –
10 | DVD485 (DLL4 (seq. 1) N-terminal / VEGF (AB071) C-terminal DVD-Ig, short HC linker, long LC linker) (bispecific antibody, human IgG1, kappa, also called DVD485H/DVD485L) heavy: not shown light: DIQMTQSPSSLSASVGDRVTITCRASQDVSTAVAWYQQKPGKAPKLLIYSASFLYSGVPSRFSGSGSGTDFTLTISSLQPEDFATTYYCQQSYTGTVTFGQGTKVEIKRTVAAPSVFIFPPDIQMTQSPSSLSASVGDRVTITCRASQVIRRSLAWYQQKPGKAPKLLIYAASNLASGVPSRFSGSGSGTDFTLTISSLQPEDFATYYCQQSNTSPLTFGQGTKVEIKRTVAAPSVFIFPPSDEQLKSGTASVVCLLNNFYPREAKVQWKVDNALQSGNSQESVTEQDSKDSTYSLSSTLTLSKADYEKHKVYACEVTHQGLSSPVTKSFNRGEC | – | – | DVD-Ig Inhibition of sFlt1 (IC50, nM) [1]: 6.67 nM; IC50 [2]: 3.44 nM; IC50 [3]: 6.3 nM
11 | DVD522 (bispecific antibody, human IgG1, kappa, lambda, L234A L235A, DVD-Ig; outer AB071 (VEGF), inner AB073 (DLL4); HC long, LC long linker; also called DVD522H; DVD522L) heavy: not shown light: DIQMTQSPSSLSASVGDRVTITCRASQVIRRSLAWYQQKPGKAPKLLIYAASNLASGVPSRFSGSGSGTDFTLTISSLQPEDFATYYCQQSNTSPLTFGQGTKVEIKRTVAAPSVFIFPPQAVVTQESALTTSPGETVTLTCRSSTGAVTTSNYANWVQEKPDHLFTGLIGGTNNRAPGVPARFSGSLIGDKAALTITGAQTEDEAIYFCALWYSNHWVFGGGTKLTVLGQPKAAPSVTLFPPSSEELQANKATLVCLISDFYPGAVTVAWKADSSPVKAGVETTTPSKQSNNKYAASSYLSLTPEQWKSHRSYSCQVTHEGSTVEKTVAPTECS | 0.48 | – | –
12 | DVD494 (bispecific antibody, human IgG1, kappa, DVD-Ig; HC long, LC long linker; also called DVD494H; DVD494L) heavy: not shown light: DIQMTQSPSSLSASVGDRVTITCSASQDISNYLNWYQQKPGKAPKVLIYFTSSLHSGVPSRFSGSGSGTDFTLTISSLQPEDFATYYCQQYSTVPWTFGQGTKVEIKRTVAAPSVFIFPPDIQMTQSSSYLSVSLGGRVTITCKASDHINNWLAWYQQKPGNAPRLLISGATSLETGVPSRFSGSGSGKDYTLSITSLQTEDVATYYCQQYWSIPLTFGAGTKLELKRTVAAPSVFIFPPSDEQLKSGTASVVCLLNNFYPREAKVQWKVDNALQSGNSQESVTEQDSKDSTYSLSSTLTLSKADYEKHKVYACEVTHQGLSSPVTKSFNRGEC | 39.5 | – | –
13 | DVD452 (bispecific antibody, human IgG1, kappa, L234A L235A, DVD-Ig; outer AB071 (VEGF), inner AB069 (DLL4); HC long, LC long linker; also called DVD452H; DVD452L) heavy: not shown light: DIQMTQSPSSLSASVGDRVTITCRASQVIRRSLAWYQQKPGKAPKLLIYAASNLASGVPSRFSGSGSGTDFTLTISSLQPEDFATYYCQQSNTSPLTFGQGTKVEIKRTVAAPSVFIFPPDIVMTQSPDSLAVSLGERATISCRASESVDNYGISFMKWFQQKPGQPPKLLIYAASNQGSGVPDRFSGSGSGTDFTLTISSLQAEDVAVYYCQQSKEVPWTFGGGTKVEIKRTVAAPSVFIFPPSDEQLKSGTASVVCLLNNFYPREAKVQWKVDNALQSGNSQESVTEQDSKDSTYSLSSTLTLSKADYEKHKVYACEVTHQGLSSPVTKSFNRGEC | 0.34 | – | –
14 | DVD500 (bispecific antibody, human IgG1, kappa, DVD-Ig; HC long, LC short linker; also called DVD500H; DVD500L) heavy: not shown light: DIQMTQSPSSLSASVGDRVTITCSASQDISNYLNWYQQKPGKAPKVLIYFTSSLHSGVPSRFSGSGSGTDFTLTISSLQPEDFATYYCQQYSTVPWTFGQGTKVEIKRTVAAPDIQMTQSSSYLSVSLGGRVTITCKASDHINNWLAWYQQKPGNAPRLLISGATSLETGVPSRFSGSGSGKDYTLSITSLQTEDVATYYCQQYWSIPLTFGAGTKLELKRTVAAPSVFIFPPSDEQLKSGTASVVCLLNNFYPREAKVQWKVDNALQSGNSQESVTEQDSKDSTYSLSSTLTLSKADYEKHKVYACEVTHQGLSSPVTKSFNRGEC | – | 0.57 | –
